The target in experiment [1] is T1, CaptureSelect Kappa XL ligand.
T1 construct: also called Biotin-KappaXL; Kappa XL column
Kind of experiment: CaptureSelect Kappa XL affinity column after Protein A. The source says: Multispecific binding proteins of the present disclosure, in clarified medium or recovered from Protein A purification, may be subjected to a second purification step using a CaptureSelect™ Kappa XL (Thermo Fisher Cat. #494321001) pre-packed affinity column. Briefly, multispecific binding proteins of the present disclosure recovered from Protein A purification are subjected to a Kappa XL affinity column which has been equilibrated with a compatible buffer, such as phosphate buffered saline (PBS) at pH 7.4. The column is then washed to remove nonspecific binding components. The bound multispecific binding protein is eluted, for example, by pH gradient (such as 20 mM Tris buffer pH 7.0 to 10 mM sodium citrate buffer pH 3.0). Binding protein fractions are detected, such as by UV absorbance or SDS-PAGE, and then are pooled.
Percent flow through (% F T) and percent elution of exemplified heteromabs of the present disclosure following kappa XL column purification essentially as described herein is assessed. Briefly, various antibody formats (as set forth in Table 3) are subjected to Kappa XL column. Flow through material is considered to comprise of impurities, such as homodimers, or misassembled antibodies, whereas the Kappa XL ligand bound material (elution material) is considered to be the correctly assembled bispecific antibody.

The target in experiment [2] is T2, human TIGIT-ECD (human, UniProt Q495A1 22-141).
T2 construct: extracellular domain
T2 sequence (looked up): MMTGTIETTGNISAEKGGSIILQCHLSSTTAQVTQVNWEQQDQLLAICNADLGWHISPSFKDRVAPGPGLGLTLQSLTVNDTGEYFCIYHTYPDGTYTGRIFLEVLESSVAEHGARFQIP
Briefly: ELISA, antibody at 1 µg/mL captured by anti-human-Fc, antigen titrated. As to the method: (§1) Binding affinity of exemplified multispecific binding proteins provided herein is assessed via ELISA. Briefly, 384-well flat bottom Elisa plates are coated with 1 ug/mL anti-human-Fc protein at 20 ul/well and incubated overnight at 4° C. The following day, plates are washed 3× with wash buffer (0.05% PBS-Tween 20) and blocked for 1 hr with blocking buffer (casein, 60 μL/well) at room temperature (RT). Plates are washed 3× with wash buffer, and binding proteins as shown in Table 10 are added at 1 μg/mL in triplicates at 20 uL/well in DPBS (Dulbecco's HyClone). Plates are incubated at RT for 1 hr, washed 3× with wash buffer, and titrated antigens are added at 20 ul/well and incubated for 60 min at RT. Plates are washed 3×, and 20 uL/well NAAP substrate is added and incubated for 20 min. Plates are washed 3×, and PNPP substrate is added at 20 uL/well, and reactions are stopped, and optical density is measured using a colorimetric microplate reader set to 405 nm.
In general terms: An ELISA detects its analyte on a solid surface through an enzyme-linked reagent.

For experiment [3], the target named is T3, human PD-1-ECD (human, UniProt Q15116 25-170).
T3 construct: extracellular domain
The experiment is described as above. As to the method:
as §1

T3 sequence (Q15116 25-170): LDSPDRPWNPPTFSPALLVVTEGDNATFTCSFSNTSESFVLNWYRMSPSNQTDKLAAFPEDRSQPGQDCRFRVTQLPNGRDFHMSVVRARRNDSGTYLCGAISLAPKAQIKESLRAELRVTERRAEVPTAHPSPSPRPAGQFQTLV

B1: PD-1-TIGIT parental IgG1 heteromab (bispecific antibody)
heavy 1: QVQLVQSGAEVKKPGSSVKVSCKASGGTFSSYAISWVRYAPGQGLEWMGLIIPSFDTAGYAQKFQGRVAITVDESTSTAYMELSSLRSEDTAVYYCARAEHSSTGTFDYWGRGTLVTVSSASTKGPSVFPLAPSSKSTSGGTAALGCLVADYFPEPVTVSWNSGALTSGVHTFPAVLQSSGLYSLASVVTVPSSSLGTQTYICNVNHKPSNTKVDERVEPKSCDKTHTCPPCPAPEAAGGPSVFLFPPKPKDTLMISRTPEVTCVVVDVSHEDPEVKFNWYVDGVEVHNAKTKPREEQYNSTYRVVSVLTVLHQDWLNGKEYKCKVSNKALAAPIEKTISKAKGQPREPQVYTLPPSREEMTDNQVSLTCLVKGFYPSDIAVEWESNGQPENNYKTTPPVLMSDGSFFLASKLTVDKSRWQQGNVFSCSVMHEALHNHYTQKSLSLSPGK
light 1: DIQMTQSPSSVSASVGDRVTITCRASQGISSWLAWYQRKPGDAPKLLISAASSLQSGVPSRFSGSGSGTDFTLTISSLQPEDFATYYCQQANHLPFTFGGGTKVEIKRTVAAPSVFIFPPSDKQLKSGTARVVCLLNNFYPREAKVQWKVDNALQSGNSQESVTEQDSKDSTYSLISTLTLSKADYEKHKVYACEVTHQGLSSPVTKSFNRGEC
heavy 2: EVQLVESGGGLVQPGGSLRLSCAASGFDFSSYGVPWVRKAPGKGLEWVGYIDPIFGPTYYADEVKGRFTISADDSKNSLYLQMNSLKTEDTAVYYCARDYSYGYAYALDIWGQGTLVTVSSASTKGPSVFPLAPSSKSTSGGTAALGCLVKDYFPEPVTVSWNSGALTSGVHTFPAVLQSSGLYSLSSVVTVPSSSLGTQTYICNVNHKPSNTKVDKRVEPKSCDKTHTCPPCPAPEAAGGPSVFLFPPKPKDTLMISRTPEVTCVVVDVSHEDPEVKFNWYVDGVEVHNAKTKPREEQYNSTYRVVSVLTVLHQDWLNGKEYKCKVSNKALAAPIEKTISKAKGQPRRPRVYTLPPSREEMTKNQVSLVCLVKGFYPSDIAVEWESNGQPENNYKTTPPVLDSDGSFFLYSVLTVDKSRWQQGNVFSCSVMHEALHNHYTQKSLSLSPGK
light 2: RIVMTQTPLSLSVTPGQPASISCQASQRISPYLAWYLDKPGQPPQLLISRASKLASGVPDRFSGSGSGTDFTLKISRVEAEDVGVYYCQSYYVHTSSGYAFGGGTKVEIKRTVAAPSVFIFPPSDEQLKSGTASVVCLLNNFYPREAKVQWKVDNALQSGNSQESVTEQDSKDSTYSLSSTLTLSKADYEKHKVYACEVTHQGLSSPVTKSFNRGEC
notes: Unmodified control heteromab; also called PD-1-TIGIT IgG1 heteromab; PD-1-Tigit IgG1 heteromab
For orientation: EC50 means the concentration at which the effect is half-maximal. Read a high EC50 as weaker potency. Consider B1, for which, in experiment [1], the “% Elution” value was found to be 99.6%. In addition, the “% Flow Through (FT)” value in experiment [1] came to 0.44%. Further, the EC50 turned out to be 68.1 pM in experiment [2] and 7 pM in experiment [3].

B2: PD-1-TIGIT IgG1 heteromab (ADK on PD-1 light chain Fab region only) (bispecific antibody)
heavy 1: QVQLVQSGAEVKKPGSSVKVSCKASGGTFSSYAISWVRYAPGQGLEWMGLIIPSFDTAGYAQKFQGRVAITVDESTSTAYMELSSLRSEDTAVYYCARAEHSSTGTFDYWGRGTLVTVSSASTKGPSVFPLAPSSKSTSGGTAALGCLVADYFPEPVTVSWNSGALTSGVHTFPAVLQSSGLYSLASVVTVPSSSLGTQTYICNVNHKPSNTKVDERVEPKSCDKTHTCPPCPAPEAAGGPSVFLFPPKPKDTLMISRTPEVTCVVVDVSHEDPEVKFNWYVDGVEVHNAKTKPREEQYNSTYRVVSVLTVLHQDWLNGKEYKCKVSNKALAAPIEKTISKAKGQPREPQVYTLPPSREEMTDNQVSLTCLVKGFYPSDIAVEWESNGQPENNYKTTPPVLMSDGSFFLASKLTVDKSRWQQGNVFSCSVMHEALHNHYTQKSLSLSPGK
light 1: DIQMTQSPSSVSASVGDRVTITCRASQGISSWLAWYQRKPGDAPKLLISAASSLQSGVPSRFSGSGSGTDFTLTISSLQPEDFATYYCQQANHLPFTFGGGTKVEIKRADAAPSVFIFPPSDKQLKSGTARVVCLLNNFYPREAKVQWKVDNALQSGNSQESVTEQDSKDSTYSLISTLTLSKADYEKHKVYACEVTHKGLSSPVTKSFNRGEC
heavy 2: EVQLVESGGGLVQPGGSLRLSCAASGFDFSSYGVPWVRKAPGKGLEWVGYIDPIFGPTYYADEVKGRFTISADDSKNSLYLQMNSLKTEDTAVYYCARDYSYGYAYALDIWGQGTLVTVSSASTKGPSVFPLAPSSKSTSGGTAALGCLVKDYFPEPVTVSWNSGALTSGVHTFPAVLQSSGLYSLSSVVTVPSSSLGTQTYICNVNHKPSNTKVDKRVEPKSCDKTHTCPPCPAPEAAGGPSVFLFPPKPKDTLMISRTPEVTCVVVDVSHEDPEVKFNWYVDGVEVHNAKTKPREEQYNSTYRVVSVLTVLHQDWLNGKEYKCKVSNKALAAPIEKTISKAKGQPRRPRVYTLPPSREEMTKNQVSLVCLVKGFYPSDIAVEWESNGQPENNYKTTPPVLDSDGSFFLYSVLTVDKSRWQQGNVFSCSVMHEALHNHYTQKSLSLSPGK
light 2: RIVMTQTPLSLSVTPGQPASISCQASQRISPYLAWYLDKPGQPPQLLISRASKLASGVPDRFSGSGSGTDFTLKISRVEAEDVGVYYCQSYYVHTSSGYAFGGGTKVEIKRTVAAPSVFIFPPSDEQLKSGTASVVCLLNNFYPREAKVQWKVDNALQSGNSQESVTEQDSKDSTYSLSSTLTLSKADYEKHKVYACEVTHQGLSSPVTKSFNRGEC
notes: also called PD-1-Tigit IgG1 heteromab (with ADK LC Fab region on PD-1 arm only)
On to B2, for which, in experiment [1], the “% Elution” value is 78.2% and the “% Flow Through (FT)” value stood at 21.8%. Further, the EC50 in experiment [2] came out at 10.8 pM. The molecule also registered a 50% effective concentration (EC50) in experiment [3] of 30.3 pM.

B3: PD-1-TIGIT IgG1 heteromab (DK on PD-1 light chain Fab region only) (bispecific antibody)
heavy 1: QVQLVQSGAEVKKPGSSVKVSCKASGGTFSSYAISWVRYAPGQGLEWMGLIIPSFDTAGYAQKFQGRVAITVDESTSTAYMELSSLRSEDTAVYYCARAEHSSTGTFDYWGRGTLVTVSSASTKGPSVFPLAPSSKSTSGGTAALGCLVADYFPEPVTVSWNSGALTSGVHTFPAVLQSSGLYSLASVVTVPSSSLGTQTYICNVNHKPSNTKVDERVEPKSCDKTHTCPPCPAPEAAGGPSVFLFPPKPKDTLMISRTPEVTCVVVDVSHEDPEVKFNWYVDGVEVHNAKTKPREEQYNSTYRVVSVLTVLHQDWLNGKEYKCKVSNKALAAPIEKTISKAKGQPREPQVYTLPPSREEMTDNQVSLTCLVKGFYPSDIAVEWESNGQPENNYKTTPPVLMSDGSFFLASKLTVDKSRWQQGNVFSCSVMHEALHNHYTQKSLSLSPGK
light 1: DIQMTQSPSSVSASVGDRVTITCRASQGISSWLAWYQRKPGDAPKLLISAASSLQSGVPSRFSGSGSGTDFTLTISSLQPEDFATYYCQQANHLPFTFGGGTKVEIKRTDAAPSVFIFPPSDKQLKSGTARVVCLLNNFYPRKAKVQWKVDNALQSGNSQESVTEQDSKDSTYSLISTLTLSKADYEKHKVYACEVTHQGLSSPVTKSFNRGEC
heavy 2: EVQLVESGGGLVQPGGSLRLSCAASGFDFSSYGVPWVRKAPGKGLEWVGYIDPIFGPTYYADEVKGRFTISADDSKNSLYLQMNSLKTEDTAVYYCARDYSYGYAYALDIWGQGTLVTVSSASTKGPSVFPLAPSSKSTSGGTAALGCLVKDYFPEPVTVSWNSGALTSGVHTFPAVLQSSGLYSLSSVVTVPSSSLGTQTYICNVNHKPSNTKVDKRVEPKSCDKTHTCPPCPAPEAAGGPSVFLFPPKPKDTLMISRTPEVTCVVVDVSHEDPEVKFNWYVDGVEVHNAKTKPREEQYNSTYRVVSVLTVLHQDWLNGKEYKCKVSNKALAAPIEKTISKAKGQPRRPRVYTLPPSREEMTKNQVSLVCLVKGFYPSDIAVEWESNGQPENNYKTTPPVLDSDGSFFLYSVLTVDKSRWQQGNVFSCSVMHEALHNHYTQKSLSLSPGK
light 2: RIVMTQTPLSLSVTPGQPASISCQASQRISPYLAWYLDKPGQPPQLLISRASKLASGVPDRFSGSGSGTDFTLKISRVEAEDVGVYYCQSYYVHTSSGYAFGGGTKVEIKRTVAAPSVFIFPPSDEQLKSGTASVVCLLNNFYPREAKVQWKVDNALQSGNSQESVTEQDSKDSTYSLSSTLTLSKADYEKHKVYACEVTHQGLSSPVTKSFNRGEC
notes: also called PD-1-Tigit IgG1 heteromab (with DK LC Fab region on PD-1 arm only)
As to B3, in experiment [1], the “% Elution” value was 73.5% and the “% Flow Through (FT)” value was 26.6%. The EC50 in experiment [2] stood at 26.1 pM. Also, a half-maximal response in experiment [3] (EC50) required 9.7 pM.

These data come from US20230242671A1 (Eli Lilly, published 2023).
